The record followed here is US20220177875.

Like-named read-outs stand apart in the source and are kept apart here.

The test system of data set [1] is T1, Human DNA ligase 3 (hLig3 beta) (Homo sapiens), P49916-4.
T1 sequence: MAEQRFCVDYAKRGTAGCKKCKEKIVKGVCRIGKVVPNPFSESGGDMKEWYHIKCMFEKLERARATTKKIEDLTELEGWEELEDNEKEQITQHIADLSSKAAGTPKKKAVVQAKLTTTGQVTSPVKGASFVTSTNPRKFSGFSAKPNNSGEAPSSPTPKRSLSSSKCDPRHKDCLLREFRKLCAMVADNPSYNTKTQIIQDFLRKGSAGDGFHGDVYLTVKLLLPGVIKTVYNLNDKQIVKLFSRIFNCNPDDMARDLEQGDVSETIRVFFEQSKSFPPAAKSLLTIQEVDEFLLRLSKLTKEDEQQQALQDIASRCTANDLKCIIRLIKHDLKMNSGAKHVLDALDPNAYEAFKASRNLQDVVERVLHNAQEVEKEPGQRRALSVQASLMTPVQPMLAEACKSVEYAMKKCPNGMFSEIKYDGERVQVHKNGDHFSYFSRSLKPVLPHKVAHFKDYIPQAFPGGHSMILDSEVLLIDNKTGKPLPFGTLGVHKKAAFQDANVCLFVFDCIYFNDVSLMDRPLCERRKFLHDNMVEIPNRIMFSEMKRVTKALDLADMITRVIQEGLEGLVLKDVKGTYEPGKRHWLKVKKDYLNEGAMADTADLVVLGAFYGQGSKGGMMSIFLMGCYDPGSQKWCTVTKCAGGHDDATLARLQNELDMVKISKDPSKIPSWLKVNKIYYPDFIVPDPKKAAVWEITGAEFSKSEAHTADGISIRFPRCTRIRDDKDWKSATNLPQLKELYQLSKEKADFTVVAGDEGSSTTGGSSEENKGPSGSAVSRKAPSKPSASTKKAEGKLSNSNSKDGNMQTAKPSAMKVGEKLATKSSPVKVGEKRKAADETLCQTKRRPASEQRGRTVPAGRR

In data set [2] the target is T2, PBCV-1 DNA ligase (Paramecium bursaria Chlorella virus 1?) (UniProt O41026).
T2 sequence: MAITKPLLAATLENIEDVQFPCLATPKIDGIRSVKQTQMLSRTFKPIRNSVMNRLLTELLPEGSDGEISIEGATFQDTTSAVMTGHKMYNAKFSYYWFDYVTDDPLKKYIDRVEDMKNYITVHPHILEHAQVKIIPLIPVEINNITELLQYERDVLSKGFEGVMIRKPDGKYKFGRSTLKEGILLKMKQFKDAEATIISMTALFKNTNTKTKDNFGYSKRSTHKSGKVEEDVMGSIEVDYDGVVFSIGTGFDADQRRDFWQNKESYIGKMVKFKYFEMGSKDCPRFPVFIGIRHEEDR
The note with it: T4 ligase buffer, 25 C 1 h; library yield 50%.

Data set [3] concerns the target T3, T3 DNA ligase (Enterobacteria phage T3?) (UniProt P07717).
T3 sequence: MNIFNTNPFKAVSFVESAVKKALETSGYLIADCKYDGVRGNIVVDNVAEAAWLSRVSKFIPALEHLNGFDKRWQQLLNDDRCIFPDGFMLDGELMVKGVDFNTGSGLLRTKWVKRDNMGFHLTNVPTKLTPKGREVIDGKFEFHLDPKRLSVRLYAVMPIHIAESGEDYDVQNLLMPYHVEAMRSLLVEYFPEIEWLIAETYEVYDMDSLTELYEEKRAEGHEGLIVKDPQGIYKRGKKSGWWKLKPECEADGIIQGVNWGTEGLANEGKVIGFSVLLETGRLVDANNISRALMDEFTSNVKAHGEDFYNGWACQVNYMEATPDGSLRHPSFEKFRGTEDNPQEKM
The note with it: T4 ligase buffer, 25 C 1 h.

In data set [4] the target is T4, T4 DNA ligase (Enterobacteria phage T4?) (UniProt P00970).
T4 sequence: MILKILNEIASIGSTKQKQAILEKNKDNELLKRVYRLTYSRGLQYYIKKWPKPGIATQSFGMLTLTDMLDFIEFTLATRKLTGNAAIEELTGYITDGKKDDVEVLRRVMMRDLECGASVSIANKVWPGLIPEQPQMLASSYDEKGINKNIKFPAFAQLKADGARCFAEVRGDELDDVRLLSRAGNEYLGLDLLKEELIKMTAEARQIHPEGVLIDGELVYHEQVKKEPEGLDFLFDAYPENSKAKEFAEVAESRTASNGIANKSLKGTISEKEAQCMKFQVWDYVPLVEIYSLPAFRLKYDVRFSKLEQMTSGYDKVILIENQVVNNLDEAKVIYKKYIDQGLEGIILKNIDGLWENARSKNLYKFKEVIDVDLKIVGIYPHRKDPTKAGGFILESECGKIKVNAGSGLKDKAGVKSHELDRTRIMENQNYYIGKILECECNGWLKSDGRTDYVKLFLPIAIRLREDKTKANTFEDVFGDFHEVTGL

Data set [5] has as its target T5, T7 DNA ligase (Enterobacteria phage T7?) (UniProt P00969).
T5 sequence: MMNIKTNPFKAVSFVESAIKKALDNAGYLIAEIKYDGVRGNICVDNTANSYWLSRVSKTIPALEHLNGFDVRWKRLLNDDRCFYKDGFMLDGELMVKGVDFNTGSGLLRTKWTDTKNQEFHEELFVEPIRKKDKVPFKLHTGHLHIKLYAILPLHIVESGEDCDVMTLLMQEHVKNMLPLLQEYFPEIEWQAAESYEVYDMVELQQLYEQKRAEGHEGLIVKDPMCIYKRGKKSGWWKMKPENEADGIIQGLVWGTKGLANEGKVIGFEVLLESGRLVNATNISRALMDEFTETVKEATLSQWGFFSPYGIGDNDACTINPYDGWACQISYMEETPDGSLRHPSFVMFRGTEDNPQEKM

Take “NNNN [randomized four-base 5' overhang hairpin library]”: the activity (% ligation fidelity) is 44 in data set [1] (T4 ligase buffer, 25 C 1 h, text p210 prints 56%); 49.7 in data set [1] (with 6% PEG 6000); 77.2 in data set [2]; 59.2 in data set [3]; 72.4 in data set [4] (SMRT sequencing, T4 ligase buffer, 10 mM MgCl2, 1 mM ATP, 25 C 1 h); 66.9 in data set [4] (with 6% PEG 6000). In addition, the activity (% ligation fidelity) stood at 88.8 in data set [5] (T4 ligase buffer, 25 C 1 h, library yield 20%) and 77.9 in data set [5] (with 6% PEG 6000).
